Measured values: patent US12371725

System: Cre recombinase (Bacteriophage P1?)
Test: cleavage_in_vitro
Conditions: 73 nM Cre, 37 C, 30 min; approximate value; ethidium bromide inhibits

## pLoxFL BamHI digest (linear, two loxP sites)
  activity (% recombination): 74
